According to US20170166631A1:

B1: NI-302.15F9 (antibody, human IgG1, V domains shown)
VH: EVQLVESGGGLVTPGGSLRLSCEASGFLFKNSSMNWVRQTPGKGLEWVSSIDTSATNYKYYADSVKGRFTISRDDATNSLYLQMNSLRADDTATYYCARGYYTPRDFDYWGQGTLVTVSS
VL: DVVMTQSPQTLSVSLGQAASISCRSSQSLLYRDNNTYLNWFHQRPGQSPRRLIYRASDRDSGVPDRFSGGGSGTDFTLKISGVEAEDVGTYYCMQGTHWPRTFGQGTKVEIK
B2: NI-302.12H2 (protein)
chain 1: EVQLVQSGGGLVQPGGSLRLSCEASGFTFSNYAMGWVRQAPGKGLEWVSVISGTGGSTYYADSVKGRFTISRDNSMNTLYLQMNSPRADDTAVYYCAKDLRKISGPLYYYGMDVWGQGTTVTVSS
chain 2: EIVLTQSPGTLSLSPGERATLSCRASQSVSSGYLAWYQQKPGQAPRLLIYGASTRATGIPDRFSGSGSGTDFTLTISRLEPEDFAVYYCQHYGASSYTFGQGTKLEIK
B3: NI-302.4A6 (protein)
chain 1: EVQLVESGGGLVQPGGSLRLSCAASGFTFSAYAMSWVRQAPGKGLEWVSTISGSGGSTYYADSVKGRFSISRDNSKNTLYLQMNSLRAEDTAVYFCAKVTTELYGANSYYYYMDVWGKGTTVTVSS
chain 2: EIVLTQSPGTLSLSPGERATLSCRASQSVVSRYLAWYQQKPGQAPRLLIYGASSRATGIPDRFSGSGSGTDFTLTISRLEPEDFAMYYCQLYGNSQTFGQGTKVEIK
B4: NI-302.8M1 (protein)
chain 1: EVQLVQSGAEVKKPGASVKVSCKASGYTFTIYYMHWVRQAPGQGLEWMGGISPSGAHTMYAQNFQGRVTVTRDTSTSTVYMELSSLRSEDTAVYYCARGSTVTNYRPFDYWGQGTLVTVSS
chain 2: DIQMTQSPSSLSASVGDRVTITCRASQDISNYLAWYQQKPGKVPKLLIFAASTLQSGVPSRFGGSGSGTDFTLTISSLQPEDVATYYCQNYNSGPPPFGPGTKVDIK

What was measured:
[1] = target: all four species (aggregated HD49, aggregated HD21, soluble GST-HD49 and GST-HD21); assay: direct ELISA, antigen coated at 5 ug/ml
[2] = target: T1, HD21 (huntingtin exon 1 protein with 21 polyQ repeats after cleavage of the GST tag; aggregation reaction) (human), P42858; assay: ELISA; details: chains VH:VL; remark: other sources report otherwise
T1 chain: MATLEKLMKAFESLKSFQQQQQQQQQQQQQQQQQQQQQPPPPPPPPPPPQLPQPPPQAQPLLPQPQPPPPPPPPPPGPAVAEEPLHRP

| Binder | EC50 [1] | EC50 [2] |
| --- | --- | --- |
| B1 | 5 to 35 nM | – |
| B2 | – | 0.05 nM |
| B3 | – | 3 nM |
| B4 | – | 0.002 nM |
